{
  "source": "paper PMC3372476",
  "target": "Src-YN (mouse)",
  "assay": "split reporter (BiFC, NanoBiT); BiFC with YFP fragments YC (155-238) and YN (1-154) in co-transfected CHO-K1 cells on fibronectin-coated coverslips; whole cells, fixed (also live cells and TIRFM), wide-field fluorescence; cells scored as background, ER + punctate or only punctate",
  "data": [
    {"substance": "YC-PTP1BWT (from UniProt P18031 1-435) (enzyme)", "values": [
      {"measurement": "% of cells with BiFC signal (ER + punctate)", "result": 86, "unit": "%"},
      {"measurement": "% of cells with BiFC signal (only punctate)", "result": 14, "unit": "%"}
    ]}
  ]
}
